Target: DNA-dependent protein kinase catalytic subunit (human (endogenous in HCT-116), UniProt P78527 1-4128)
Experiment: cell-based or functional assay

DNA-dependent protein kinase catalytic subunit, sequence (P78527 whole entry): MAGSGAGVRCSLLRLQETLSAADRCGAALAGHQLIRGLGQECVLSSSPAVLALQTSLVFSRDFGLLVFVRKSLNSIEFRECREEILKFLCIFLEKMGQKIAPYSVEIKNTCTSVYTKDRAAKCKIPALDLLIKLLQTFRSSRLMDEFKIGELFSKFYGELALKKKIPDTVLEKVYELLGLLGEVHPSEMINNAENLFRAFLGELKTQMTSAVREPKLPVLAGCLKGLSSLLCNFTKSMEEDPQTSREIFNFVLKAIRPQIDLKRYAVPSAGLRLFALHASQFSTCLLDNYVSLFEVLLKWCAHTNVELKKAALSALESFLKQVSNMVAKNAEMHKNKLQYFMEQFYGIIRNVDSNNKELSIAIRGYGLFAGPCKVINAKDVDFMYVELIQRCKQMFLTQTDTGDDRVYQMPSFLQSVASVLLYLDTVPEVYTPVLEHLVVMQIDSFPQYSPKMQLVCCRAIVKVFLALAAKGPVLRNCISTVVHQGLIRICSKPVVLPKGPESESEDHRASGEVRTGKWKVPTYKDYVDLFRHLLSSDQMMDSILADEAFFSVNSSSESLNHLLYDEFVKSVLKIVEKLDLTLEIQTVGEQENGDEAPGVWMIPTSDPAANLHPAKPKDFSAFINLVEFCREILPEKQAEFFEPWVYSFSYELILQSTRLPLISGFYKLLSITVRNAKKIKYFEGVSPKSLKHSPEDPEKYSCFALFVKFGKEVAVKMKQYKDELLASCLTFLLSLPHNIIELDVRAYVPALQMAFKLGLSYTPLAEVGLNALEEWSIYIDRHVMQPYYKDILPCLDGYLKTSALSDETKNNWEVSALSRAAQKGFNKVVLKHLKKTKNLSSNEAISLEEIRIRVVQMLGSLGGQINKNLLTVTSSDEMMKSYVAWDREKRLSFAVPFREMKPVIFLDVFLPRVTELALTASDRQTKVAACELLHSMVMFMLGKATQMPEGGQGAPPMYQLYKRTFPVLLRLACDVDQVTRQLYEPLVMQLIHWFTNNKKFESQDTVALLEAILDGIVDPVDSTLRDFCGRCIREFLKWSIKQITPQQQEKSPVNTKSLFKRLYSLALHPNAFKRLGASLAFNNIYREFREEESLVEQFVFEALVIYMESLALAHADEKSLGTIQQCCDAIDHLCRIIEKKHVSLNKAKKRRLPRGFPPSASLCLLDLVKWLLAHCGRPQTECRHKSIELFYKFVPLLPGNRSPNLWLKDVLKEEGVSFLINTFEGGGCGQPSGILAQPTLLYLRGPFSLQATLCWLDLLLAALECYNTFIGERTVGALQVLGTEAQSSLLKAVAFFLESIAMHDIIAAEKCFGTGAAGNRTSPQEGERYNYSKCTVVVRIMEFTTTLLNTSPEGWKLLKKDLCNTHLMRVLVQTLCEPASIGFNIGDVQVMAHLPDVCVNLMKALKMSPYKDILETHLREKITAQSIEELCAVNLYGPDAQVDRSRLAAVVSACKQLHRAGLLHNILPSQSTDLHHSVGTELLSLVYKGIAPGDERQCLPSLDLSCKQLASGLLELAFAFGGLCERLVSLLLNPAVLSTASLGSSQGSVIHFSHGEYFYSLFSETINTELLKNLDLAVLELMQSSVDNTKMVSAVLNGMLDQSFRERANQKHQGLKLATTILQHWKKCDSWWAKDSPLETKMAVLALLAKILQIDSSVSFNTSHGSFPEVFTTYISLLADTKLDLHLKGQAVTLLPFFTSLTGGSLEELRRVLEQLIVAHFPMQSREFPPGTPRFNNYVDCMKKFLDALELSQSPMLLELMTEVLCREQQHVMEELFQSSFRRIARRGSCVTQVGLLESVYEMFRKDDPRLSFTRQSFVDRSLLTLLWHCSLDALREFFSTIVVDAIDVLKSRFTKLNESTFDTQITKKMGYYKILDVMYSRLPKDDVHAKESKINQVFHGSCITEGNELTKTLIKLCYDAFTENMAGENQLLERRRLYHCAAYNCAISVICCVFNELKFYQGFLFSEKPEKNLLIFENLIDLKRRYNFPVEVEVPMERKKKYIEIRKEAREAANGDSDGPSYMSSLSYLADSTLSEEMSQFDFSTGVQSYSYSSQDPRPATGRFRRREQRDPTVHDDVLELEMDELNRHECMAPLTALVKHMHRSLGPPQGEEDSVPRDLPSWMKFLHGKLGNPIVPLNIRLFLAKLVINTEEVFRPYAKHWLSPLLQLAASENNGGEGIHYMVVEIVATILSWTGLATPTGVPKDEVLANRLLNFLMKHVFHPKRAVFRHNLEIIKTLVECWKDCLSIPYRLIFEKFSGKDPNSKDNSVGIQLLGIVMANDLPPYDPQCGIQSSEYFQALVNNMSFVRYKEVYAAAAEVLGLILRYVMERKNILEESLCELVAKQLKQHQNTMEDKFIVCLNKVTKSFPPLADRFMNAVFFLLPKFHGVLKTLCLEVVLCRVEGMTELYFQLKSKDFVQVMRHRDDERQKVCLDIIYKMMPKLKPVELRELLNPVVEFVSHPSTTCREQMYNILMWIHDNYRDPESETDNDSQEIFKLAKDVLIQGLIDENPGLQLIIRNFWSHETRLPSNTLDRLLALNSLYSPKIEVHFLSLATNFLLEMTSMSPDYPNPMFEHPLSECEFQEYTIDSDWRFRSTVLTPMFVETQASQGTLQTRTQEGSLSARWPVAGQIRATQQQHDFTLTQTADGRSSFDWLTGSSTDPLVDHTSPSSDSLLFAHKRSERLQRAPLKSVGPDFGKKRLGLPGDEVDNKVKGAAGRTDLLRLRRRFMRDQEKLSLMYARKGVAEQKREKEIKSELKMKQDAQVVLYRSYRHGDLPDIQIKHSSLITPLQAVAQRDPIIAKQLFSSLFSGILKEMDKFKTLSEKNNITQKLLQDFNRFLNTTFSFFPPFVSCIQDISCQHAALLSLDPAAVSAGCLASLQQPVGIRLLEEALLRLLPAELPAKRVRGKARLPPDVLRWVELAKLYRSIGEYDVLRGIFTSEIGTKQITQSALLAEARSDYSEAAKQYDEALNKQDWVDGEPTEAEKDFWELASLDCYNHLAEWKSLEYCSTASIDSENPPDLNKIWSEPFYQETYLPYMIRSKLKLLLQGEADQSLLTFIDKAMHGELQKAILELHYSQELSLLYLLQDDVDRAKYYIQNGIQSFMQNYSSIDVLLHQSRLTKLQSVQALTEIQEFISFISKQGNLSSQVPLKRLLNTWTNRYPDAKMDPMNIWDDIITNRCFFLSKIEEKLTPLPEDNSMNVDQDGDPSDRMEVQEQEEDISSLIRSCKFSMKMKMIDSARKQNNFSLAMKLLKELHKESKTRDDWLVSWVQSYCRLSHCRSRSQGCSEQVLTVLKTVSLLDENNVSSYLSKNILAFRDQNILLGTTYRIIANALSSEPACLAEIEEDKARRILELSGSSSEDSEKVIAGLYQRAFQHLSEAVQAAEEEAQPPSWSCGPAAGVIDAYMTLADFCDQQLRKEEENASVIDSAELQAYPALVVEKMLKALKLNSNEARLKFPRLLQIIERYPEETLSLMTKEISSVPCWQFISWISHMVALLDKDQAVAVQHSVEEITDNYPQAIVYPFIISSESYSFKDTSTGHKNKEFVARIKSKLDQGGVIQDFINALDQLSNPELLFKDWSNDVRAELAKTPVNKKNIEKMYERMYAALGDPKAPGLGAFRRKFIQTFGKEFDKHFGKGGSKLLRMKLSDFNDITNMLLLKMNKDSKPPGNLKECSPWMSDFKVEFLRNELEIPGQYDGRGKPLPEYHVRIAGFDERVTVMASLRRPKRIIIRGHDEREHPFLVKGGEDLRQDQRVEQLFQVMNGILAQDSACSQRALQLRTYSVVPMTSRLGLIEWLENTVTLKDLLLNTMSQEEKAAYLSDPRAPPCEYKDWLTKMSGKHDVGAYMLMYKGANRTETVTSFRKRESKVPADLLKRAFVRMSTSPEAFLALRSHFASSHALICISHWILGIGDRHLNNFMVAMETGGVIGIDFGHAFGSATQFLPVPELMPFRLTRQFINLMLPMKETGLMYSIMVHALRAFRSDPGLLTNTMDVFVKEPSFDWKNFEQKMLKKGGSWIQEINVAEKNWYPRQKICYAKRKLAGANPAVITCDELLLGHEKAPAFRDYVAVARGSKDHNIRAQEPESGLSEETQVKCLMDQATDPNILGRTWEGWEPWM

B1: 15-lipoxygenase-1 (enzyme, human, UniProt P16050 1-662, looked up)
chain: MGLYRIRVSTGASLYAGSNNQVQLWLVGQHGEAALGKRLWPARGKETELKVEVPEYLGPLLFVKLRKRHLLKDDAWFCNWISVQGPGAGDEVRFPCYRWVEGNGVLSLPEGTGRTVGEDPQGLFQKHREEELEERRKLYRWGNWKDGLILNMAGAKLYDLPVDERFLEDKRVDFEVSLAKGLADLAIKDSLNVLTCWKDLDDFNRIFWCGQSKLAERVRDSWKEDALFGYQFLNGANPVVLRRSAHLPARLVFPPGMEELQAQLEKELEGGTLFEADFSLLDGIKANVILCSQQHLAAPLVMLKLQPDGKLLPMVIQLQLPRTGSPPPPLFLPTDPPMAWLLAKCWVRSSDFQLHELQSHLLRGHLMAEVIVVATMRCLPSIHPIFKLIIPHLRYTLEINVRARTGLVSDMGIFDQIMSTGGGGHVQLLKQAGAFLTYSSFCPPDDLADRGLLGVKSSFYAQDALRLWEIIYRYVEGIVSLHYKTDVAVKDDPELQTWCREITEIGLQGAQDRGFPVSLQARDQVCHFVTMCIFTCTGQHASVHLGQLDWYSWVPNAPCTMRLPPPTTKDATLETVMATLPNFHQASLQMSITWQLGRRQPVMVAVGQHEEEYFSGPEPKAVLKKFREELAALDKEIEIRNAKLDMPYEYLRPSVVENSVAI
  DNA-PK kinase activity in 15-LOX-1 expressing whole cell extract lysates: 1.6 fold

Reference: article PMC2613223 (International journal of cancer. Journal international du …, 2008)
